Test results: US20210214434A1

Columns and labels:
[1] = molecular target: Fc receptors on the surface of the effector cells; test: cell-based or functional assay
[2] = molecular target: HisTag hCD16aV receptor (R&D System) (human) (UniProt P08637); test: BLI (Octet), HisTag hCD16aV on anti-Penta-HIS biosensors, 1/1 model; SD 103.9
[3] = molecular target: biotinylated human FcRn receptor (hFcRn), immobilized on Streptavidin Biosensors (human) (UniProt P55899); test: BLI (Octet), biotinylated hFcRn on streptavidin biosensors, pH 6, 1/1 model; SD 1.94
[4] = molecular target: human CD64 receptor expressed by Jurkat cells (Jurkat-CD64) (human) (UniProt P12314); test: flow cytometry competition on Jurkat-CD64 cells, displacement of Rituxan-A488 (25 µg/ml)
human CD64 receptor expressed by Jurkat cells (Jurkat-CD64) (human), sequence (P12314 16-374): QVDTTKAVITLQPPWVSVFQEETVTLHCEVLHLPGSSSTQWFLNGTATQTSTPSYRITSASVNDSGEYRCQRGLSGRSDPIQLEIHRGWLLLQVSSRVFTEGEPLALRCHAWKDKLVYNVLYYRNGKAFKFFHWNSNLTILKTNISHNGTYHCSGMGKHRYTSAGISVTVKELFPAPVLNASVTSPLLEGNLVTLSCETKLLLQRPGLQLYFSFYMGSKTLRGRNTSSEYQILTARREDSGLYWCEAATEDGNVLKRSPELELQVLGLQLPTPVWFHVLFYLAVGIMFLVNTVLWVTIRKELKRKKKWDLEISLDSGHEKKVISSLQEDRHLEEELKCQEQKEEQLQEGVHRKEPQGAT

[5] = molecular target: HisTag hCD32aH receptor (PX therapeutics) (human) (UniProt P12318); test: BLI (Octet), HisTag hCD32aH on anti-Penta-HIS biosensors, 1/1 model; SD 114.3
HisTag hCD32aH receptor (PX therapeutics) (human), sequence (P12318 34-217 limits assumed): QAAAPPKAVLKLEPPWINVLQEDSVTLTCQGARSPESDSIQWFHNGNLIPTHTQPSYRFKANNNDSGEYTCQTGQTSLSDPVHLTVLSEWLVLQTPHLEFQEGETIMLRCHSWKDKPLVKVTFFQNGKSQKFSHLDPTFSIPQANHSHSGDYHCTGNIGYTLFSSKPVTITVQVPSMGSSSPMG

[6] = molecular target: HisTag hCD16aV receptor (R&D System) (human) (UniProt P08637); test: BLI (Octet), HisTag hCD16aV on anti-Penta-HIS biosensors, 1/1 model; SD 4.0
[7] = molecular target: human CD32aH receptor on transfected HEK cells (HEK-CD32) (human) (UniProt P12318); test: flow cytometry competition on HEK-CD32 cells, displacement of Rituxan-A488 (30 µg/ml)
human CD32aH receptor on transfected HEK cells (HEK-CD32) (human), sequence (P12318 34-317): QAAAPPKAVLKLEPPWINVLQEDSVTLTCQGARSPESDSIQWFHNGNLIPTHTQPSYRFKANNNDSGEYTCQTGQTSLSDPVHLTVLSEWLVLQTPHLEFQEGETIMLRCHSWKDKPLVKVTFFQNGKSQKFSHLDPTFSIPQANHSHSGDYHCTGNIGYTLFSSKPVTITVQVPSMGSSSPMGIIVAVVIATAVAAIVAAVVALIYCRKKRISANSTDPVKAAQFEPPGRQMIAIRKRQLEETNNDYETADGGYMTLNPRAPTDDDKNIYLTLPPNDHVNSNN

[8] = molecular target: human CD32aR receptor on transfected HEK cells (HEK-CD32) (human) (UniProt P12318); test: as above
human CD32aR receptor on transfected HEK cells (HEK-CD32) (human), sequence (P12318 34-317 H167R limits assumed): as the sequence (P12318 34-317) above, with H134R counted along it

CD32b = CD32b (UniProt P31994); test: competition assay, protocol and competitor for CD32b not described
CD32b, sequence (P31994 43-310 limits assumed): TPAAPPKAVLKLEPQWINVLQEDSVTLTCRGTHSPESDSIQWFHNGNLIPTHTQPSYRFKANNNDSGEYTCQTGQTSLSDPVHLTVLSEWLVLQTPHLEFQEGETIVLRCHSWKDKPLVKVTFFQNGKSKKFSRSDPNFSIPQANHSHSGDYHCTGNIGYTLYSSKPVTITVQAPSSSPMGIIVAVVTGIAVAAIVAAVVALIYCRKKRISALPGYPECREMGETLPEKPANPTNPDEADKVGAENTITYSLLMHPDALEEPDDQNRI

[9] = molecular target: human CD16aH receptor on transfected Jurkat cells (Jurkat-CD16aH) (human) (UniProt P08637); test: flow cytometry competition on Jurkat-CD16aH cells, displacement of mAb 3G8-PE (0.5 µg/ml)
human CD16aH receptor on transfected Jurkat cells (Jurkat-CD16aH) (human), sequence (P08637 17-254): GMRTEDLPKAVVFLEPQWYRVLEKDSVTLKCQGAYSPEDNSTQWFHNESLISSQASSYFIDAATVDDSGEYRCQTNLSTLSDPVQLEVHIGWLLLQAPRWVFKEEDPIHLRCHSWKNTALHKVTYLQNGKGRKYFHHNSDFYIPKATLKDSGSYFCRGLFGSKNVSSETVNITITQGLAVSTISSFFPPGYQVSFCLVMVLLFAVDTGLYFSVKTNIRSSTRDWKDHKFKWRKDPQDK

[10] = molecular target: human CD64 receptor expressed by Jurkat cells (Jurkat-CD64) (human) (UniProt P12314); test: cell-based or functional assay
[11] = molecular target: human FcRn receptor expressed by Jurkat cells (Jurkat-FcRn) (human) (UniProt P55899); test: flow cytometry competition on Jurkat-FcRn cells, displacement of Rituxan-A488 (25 µg/ml), pH 6

HisTag hCD16aV receptor (R&D System) (human), sequence (P08637 17-208 F176V limits assumed): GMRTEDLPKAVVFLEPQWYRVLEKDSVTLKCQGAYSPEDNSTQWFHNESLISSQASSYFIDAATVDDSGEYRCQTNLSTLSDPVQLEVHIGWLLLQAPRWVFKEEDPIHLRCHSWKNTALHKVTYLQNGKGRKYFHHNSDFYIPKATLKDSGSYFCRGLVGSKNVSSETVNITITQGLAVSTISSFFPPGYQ

| Inhibition of the lysis of the red blood cells medited by the anti-D AD1 (IC 25%, nM) [1] [nM] | Inhibition of the lysis of the red blood cells medited by the anti-D AD1 (IC 50%, nM) [1] [nM] | Kd [2] [nM] | Kd [3] [nM] | IC50 [4] [nM] | Kd [5] [nM] | Kd [6] [nM] | IC50 [7] [nM] | IC50 [8] [nM] | IC50 (CD32b) [nM] | IC50 [9] [nM] | Inhibition of the secretion of IL-2 of the Jurkat cells transfected with CD64 (IC 25%, nM) [10] [nM] | Inhibition of the secretion of IL-2 of the Jurkat cells transfected with CD64 (IC 50%, nM) [10] [nM] | IC50 [11] [nM] | Substance |
| --- | --- | --- | --- | --- | --- | --- | --- | --- | --- | --- | --- | --- | --- | --- |
| 13.5 | 97 | – | – | – | – | – | – | – | – | – | – | – | – | A3A-184AY_CHO (K334N/P352S/A378V/V397M/N434Y), Fc variant produced in CHO cells (from UniProt P0DOX5 223-449) |
| 7.6 | 56 | – | – | – | – | – | – | – | – | – | – | – | – | A3A-184EY_CHO (Y296W/K334N/P352S/A378V/V397M/N434Y), Fc variant produced in CHO cells (from UniProt P0DOX5 223-449) |
| 190 | 441 | – | – | – | – | – | – | – | – | – | – | – | – | Fc MST-HN fragment containing the mutations M252Y/S254T/T256E/H433K/N434F, produced in HEK-293 cells (from UniProt P01857 104-330) |
| 59.6 | 351 | 339 | 34.4 | 880 | 438 | 654 | 671 | 1310 | 761 | 1680 | 1110 | < 1950 | 1360 | IVIg (intravenous immunoglobulin, polyvalent immunoglobulins from pools of human plasma donations) (antibody) |
